# From patent US20070224188A1
# Biological target: biotin-labeled soluble FcRn
# Assay: FcRn ELISA pH 6.0
# Sequence of anti-CD20 antibody, IgG1 Fc region, wild type (a, z) (heavy, part): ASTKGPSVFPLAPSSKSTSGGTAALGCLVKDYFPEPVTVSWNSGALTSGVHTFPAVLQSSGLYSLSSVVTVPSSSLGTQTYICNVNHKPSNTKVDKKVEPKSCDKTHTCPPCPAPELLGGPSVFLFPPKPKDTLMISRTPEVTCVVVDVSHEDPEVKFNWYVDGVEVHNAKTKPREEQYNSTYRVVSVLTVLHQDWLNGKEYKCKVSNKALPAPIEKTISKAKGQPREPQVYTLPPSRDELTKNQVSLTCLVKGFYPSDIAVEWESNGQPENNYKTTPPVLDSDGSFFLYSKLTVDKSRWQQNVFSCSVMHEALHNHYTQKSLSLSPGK
Substance,FcRn pH6.0 (% of wild type),FcRn6.0 (% of wild type)
anti-CD20 IgG1 P343N (antibody),105,
anti-CD20 IgG1 Q311I (antibody),437,
anti-CD20 IgG1 I377G (antibody),76,
anti-CD20 IgG1 T260S (antibody),124,
anti-CD20 IgG1 G341R (antibody),78,
anti-CD20 IgG1 V279W (antibody),162,
anti-CD20 IgG1 E272R (antibody),351,
anti-CD20 IgG1 R292E (antibody),65,
anti-CD20 IgG1 T256K (antibody),31,
anti-CD20 IgG1 G341W (antibody),76,
anti-CD20 IgG1 L432S (antibody),70,
anti-CD20 IgG1 I332K (antibody),146,
anti-CD20 IgG1 G341H (antibody),65,
anti-CD20 IgG1 I332T (antibody),100,
anti-CD20 IgG1 E272L (antibody),129,
anti-CD20 IgG1 V279A (antibody),214,
anti-CD20 IgG1 A339G (antibody),67,
anti-CD20 IgG1 258D272R (antibody),,383
anti-CD20 IgG1 H285N (antibody),202,
anti-CD20 IgG1 G237N (antibody),91,
anti-CD20 IgG1 Q311Y (antibody),94,
anti-CD20 IgG1 E382S (antibody),151,
anti-CD20 IgG1 P247M (antibody),18,

Substance,FcRn pH6.0 (% of wild type),FcRn6.0 (% of wild type)
anti-CD20 IgG1 P238L (antibody),115,
anti-CD20 IgG1 E382D (antibody),73,
"anti-CD20 antibody, IgG1 Fc region, wild type (a, z)",100,100
anti-CD20 IgG1 S440I (antibody),96,
anti-CD20 IgG1 T256F (antibody),5,
anti-CD20 IgG1 I332S (antibody),263,
anti-CD20 IgG1 P247D (antibody),54,
anti-CD20 IgG1 D312P (antibody),546,
anti-CD20 IgG1 D280K (antibody),120,
anti-CD20 IgG1 P257A (antibody),319,
anti-CD20 IgG1 E430V (antibody),281,
anti-CD20 IgG1 E258D (antibody),361,
anti-CD20 IgG1 330K332E (antibody),,94
anti-CD20 IgG1 I332A (antibody),96,
anti-CD20 IgG1 K439Q (antibody),74,
anti-CD20 IgG1 V379Q (antibody),85,
anti-CD20 IgG1 E382N (antibody),137,
anti-CD20 IgG1 Q311V (antibody),558,
anti-CD20 IgG1 G341S (antibody),55,
anti-CD20 IgG1 D376S (antibody),134,
anti-CD20 IgG1 I332R (antibody),114,
anti-CD20 IgG1 Y373F (antibody),110,
anti-CD20 IgG1 D280T (antibody),60,

Substance,FcRn pH6.0 (% of wild type),FcRn6.0 (% of wild type)
anti-CD20 IgG1 I332M (antibody),128,
anti-CD20 IgG1 S440M (antibody),80,
anti-CD20 IgG1 K288P (antibody),119,
anti-CD20 IgG1 D376H (antibody),81,
anti-CD20 IgG1 S254I (antibody),25,
anti-CD20 IgG1 S254M (antibody),0,
anti-CD20 IgG1 Y373D (antibody),74,
anti-CD20 IgG1 S267G (antibody),86,
anti-CD20 IgG1 E283F (antibody),168,
anti-CD20 IgG1 Q311D (antibody),38,
anti-CD20 IgG1 256P332E440Y (antibody),,117
anti-CD20 IgG1 Y436L (antibody),172,
anti-CD20 IgG1 S254W (antibody),0,
anti-CD20 IgG1 V279T (antibody),265,
anti-CD20 IgG1 S254T (antibody),32,
anti-CD20 IgG1 V279Y (antibody),139,
anti-CD20 IgG1 283R376V (antibody),,475
anti-CD20 IgG1 K439H (antibody),99,
anti-CD20 IgG1 D270A (antibody),87,
anti-CD20 IgG1 K326W (antibody),93,
anti-CD20 IgG1 E318T (antibody),304,
anti-CD20 IgG1 257I430Q (antibody),,304

# Now from value to substance:
FcRn pH6.0 (% of wild type),FcRn6.0 (% of wild type),Substance
102,,anti-CD20 IgG1 P343D (antibody)
73,,anti-CD20 IgG1 Y373I (antibody)
86,,anti-CD20 IgG1 V379S (antibody)
26,,anti-CD20 IgG1 P247Q (antibody)
72,,anti-CD20 IgG1 T256I (antibody)
188,,anti-CD20 IgG1 P245R (antibody)
79,,anti-CD20 IgG1 P247I (antibody)
1010,,anti-CD20 IgG1 N434F (antibody)
93,,anti-CD20 IgG1 G237E (antibody)
79,,anti-CD20 IgG1 G341M (antibody)
122,,anti-CD20 IgG1 E382P (antibody)
114,,anti-CD20 IgG1 T256V (antibody)
46,,anti-CD20 IgG1 Q311E (antibody)
78,,anti-CD20 IgG1 V264S (antibody)
64,,anti-CD20 IgG1 Q311F (antibody)
167,,anti-CD20 IgG1 I377K (antibody)
26,,anti-CD20 IgG1 T256H (antibody)
100,,anti-CD20 IgG1 Y373H (antibody)
54,,anti-CD20 IgG1 G341Y (antibody)

FcRn pH6.0 (% of wild type),FcRn6.0 (% of wild type),Substance
6,,anti-CD20 IgG1 N434I (antibody)
96,,anti-CD20 IgG1 T250K (antibody)
95,,anti-CD20 IgG1 A339S (antibody)
242,,anti-CD20 IgG1 E430L (antibody)
0,,anti-CD20 IgG1 S254H (antibody)
,268,anti-CD20 IgG1 256P311I (antibody)
171,,anti-CD20 IgG1 E430N (antibody)
89,,anti-CD20 IgG1 Q311P (antibody)
78,,anti-CD20 IgG1 D376L (antibody)
106,,anti-CD20 IgG1 Y373E (antibody)
75,,anti-CD20 IgG1 A339E (antibody)
,72,anti-CD20 IgG1 251F332E (antibody)
,66,anti-CD20 IgG1 251F376I (antibody)
,445,anti-CD20 IgG1 258D286F (antibody)
14,,anti-CD20 IgG1 Q311R (antibody)
83,,anti-CD20 IgG1 P343M (antibody)
94,,anti-CD20 IgG1 P238I (antibody)
142,,anti-CD20 IgG1 E380N (antibody)
61,,anti-CD20 IgG1 Y373N (antibody)
